This note sets out measurements from patent publication US7678885 (GENETICS INSTITUTE, dated 2010).

The chains are these.
T1: BMP-2 subunit beginning with amino acid #249 (CHO-produced) (human, UniProt P12643 249-396)
T1 construct: Single subunit; also called BMP-2 subunit #249 Ser-Lev-His
T1 sequence: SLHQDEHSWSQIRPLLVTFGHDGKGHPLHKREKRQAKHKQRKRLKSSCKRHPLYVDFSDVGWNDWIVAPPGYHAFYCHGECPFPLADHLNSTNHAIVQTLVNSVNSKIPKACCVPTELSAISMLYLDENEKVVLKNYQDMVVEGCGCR

B1: BMP-6 subunit beginning with amino acid #375 (CHO-produced) (ligand)
chain: SASSRRRQQSRNRSTQSQDVARVSSASDYNSSELKTACRKHELYVSFQDLGWQDWIIAPKGYAANYCDGECSFPLNAHMNATNHAIVQTLVHLMNPEYVPKPCCAPTKLNAISVLYFDDNSNVILKKYRNMVVRACGCH
notes: Single subunit
B2: BMP-2 subunit beginning with amino acid #283 (CHO-produced) (ligand)
chain: QAKHKQRKRLKSSCKRHPLYVDFSDVGWNDWIVAPPGYHAFYCHGECPFPLADHLNSTNHAIVQTLVNSVNSKIPKACCVPTELSAISMLYLDENEKVVLKNYQDMVVEGCGCR
notes: also called mature BMP-2 subunit
B3: E. coli BMP-2 monomer (mature portion of BMP-2 from plasmid pALBP2-781) (ligand)
chain: MQAKHKQRKRLKSSCKRHPLYVDFSDVGWNDWIVAPPGYHAFYCHGECPFPLADHLNSTNHAIVQTLVNSVNSKIPKACCVPTELSAISMLYLDENEKVVLKNYQDMVVEGCGCR

The target of series [1] is T1, BMP-2 subunit beginning with amino acid …. In words: protein sequencing of purified CHO BMP-2/6 heterodimer subunits. How it is done:
(§1) The BMP-2/6 heterodimer subunits are analyzed on a protein sequenator.

Series [2] deals with the molecule itself. In words: purification of BMP-2/6 from CHO 12C07 medium, gel analysis. As for the experimental part: After the completion of sample loading, the column was washed with 10 bed volumes of the equilibration buffer. Bound BMP-2/7 or BMP-2/6 heterodimers were eluted with 5 bed volumes of 100 mM potassium phosphate, 6M urea, pH 7.4. This eluate was loaded directly onto a Vydac C_4 reverse-phase HPLC column equilibrated in water –0.1% TFA. BMP-2/7 or BMP-2/6 heterodimers were eluted with a gradient of 30-50% acetonitrile in water—0.1% trifluoroacetic acid.
Fractions containing BMPs are identified by SDS-PAGE in the presence or absence of reductant. The identity of the BMPs with respect to the heterodimers vs. homodimers is determined by 2D-PAGE (+/−reductant). Fractions with heterodimers gave bands which reduce to two spots. Bands from homodimer fractions reduce to a single spot for each BMP species.

Series [3] deals with B1. Briefly: protein sequencing of purified CHO BMP-2/6 heterodimer subunits. How it is done:
as §1

Series [4] concerns the molecule itself. In words: refolding of E. coli monomer, SDS-PAGE with and without reduction.

Regarding B1, the binding result in series [1] and in series [2] was “binds” each time.
For B2, in series [3], the binding result is given as “binds”.
For B3, in series [4], the binding result is reported as “binds”.
